Tests used:
[1] = target: T1, human neuropilin-2 at the membrane surface (HT29-NRP-2, P815-NRP-2 cells) (Homo sapiens, UniProt O60462); assay: Flow cytometry membrane labelling of cells expressing or not expressing NRP-2; format: binding; conditions: 5 μg/ml antibody, 15 minutes at 4° C.; HT29, HT29-NRP-2, P815, P815-NRP-2 cells
T1 construct: expressed in transfected cells; host or cells: HT29 (human colorectal cancer) and P815 (murine mastocytoma) cells, G418-selected
Description: The ITAC-B1 clone was deposited, according to the Treaty of Budapest, with the CNCM (Collection Nationale des Microorganismes [French National Microorganism Collection], Institut Pasteur, 25 rue du Docteur Roux, 75724 Paris Cedex 15, France) on 30 Jul. 2008 under the deposit number CNCM 1-4054. In order to characterize the ITAC-B1 and ITAC-B2 monoclonal antibodies, membrane labelling was carried out by flow cytometry by bringing 200 000 HT29, HT29-NRP-2, P815 or P815-NRP-2 cells into contact with 5 μg/ml of ITAC-B1 or of ITAC-B2, for 15 minutes at 4° C. A goat anti-mouse secondary antibody coupled to FITC was then incubated for 15 minutes in the dark, at 4° C., before reading by flow cytometry. The results of the flow cytometry analysis obtained for ITAC-B1 are represented in FIG. 2.
For each of the panels of FIG. 2, the number of events (number of cells) is indicated on a y-axis, the fluorescence intensity (corresponding to the labelling of the cells with the ITAC-B1 antibody) is represented on the x-axis. Panels A and C (P815+ITAC-B1 and HT29ctrl+ITAC-B1) of FIG. 2 represent the results obtained by flow cytometry with the control cells, while panels B and D (P815-NRP-2+ITAC-B1 and HT29-NRP-2+ITAC-B1) represent the results obtained with cells expressing NRP-2 at their membrane surface. […]

Colo320siRNA-ctrl cells = assay: Annexin V-APC apoptosis test with or without PFTα pretreatment; format: cell-based, human; conditions: 20 μg/ml, 5 h
Description: In order to correlate the induction of apoptosis with p53 expression, the Colo320siRNA-ctrl cells were pretreated for 18 h with a chemical inhibitor of p53, pifithrin-α, at a dose of 27 μM (PFTα, Sigma). After pretreatment, the cells are washed twice with 3 ml of PBS and placed in a 24-well plate, at a rate of 100 000 cells/well in 1 ml of RPMI-10% FCS. Non-pretreated cells are placed under the same conditions. The cells are incubated for 5 h with a control murine isotype antibody (BZ1) or ITAC-B1 at 20 μg/ml and the apoptosis is measured as described above.
FIG. 14 represents the results of the apoptosis-induction experiments carried out with the Colo320siRNA-ctrl cells pretreated or not pretreated with PFTα. The percentage of cells labelled with Annexin V-APC is indicated on the y-axis, the cell culture conditions are indicated on the x-axis (control consisting of medium, control consisting of medium supplemented with a control isotype antibody -BZ1-, test consisting of medium supplemented with the ITAC-B1 antibody). The results of the tests carried out with cells pretreated with PFTα are represented in light grey, those of the tests carried out with non-pretreated cells are represented in dark grey.

p53 protein = assay: Western blotting of p53 expression after antibody treatment; format: cell-based, human; conditions: 20 ng/ml, 48 hours
Description: The HT29, HT29-NRP-2, Colo320^siRNA-ctrl tumour cells and Colo320^siRNA-NRP-2 were exposed to 20 ng/ml of ITAC-B1 antibody or of control antibody, and cultured for 48 hours. After lysis of the cell lines, migration of the protein pellets obtained on a 10% polyacrylamide gel (10 μg of protein per well) and then transfer onto a PVDF membrane, the membrane was incubated overnight with the anti-p53 primary antibody (BD Biosciences, mouse anti-human p53) diluted to 1/500. After washing in TBS/0.1% Tween20, the membranes were incubated for 1 hour with an anti-mouse IgG-HRP secondary antibody diluted to 1/6000. The results are represented in FIG. 19.

HT29-NRP-2 tumour cells = assay: HT29-NRP-2 subcutaneous xenograft, tumour volume; format: in vivo, immunodeficient mice
Description: HT29-NRP-2 tumour cells were injected subcutaneously into 20 immunodeficient mice, at a rate of 1×10^6 cells per mouse, in the right flank. 10 days after the injection, the tumours measure approximately 5 mm×5 mm.
In accordance with the protocol described above, group B was inoculated with ITAC-B1 at D0 (12 mg/kg), D3 (6 mg/kg), D7 (12 mg/kg) and D10 (6 mg/kg). Group C was inoculated with 20 mg/kg of 5-FU from D0 to D4 and then with 100 mg/kg at D9. Group D was inoculated with ITAC-B1 at D0 (12 mg/kg), D3 (6 mg/kg), D7 (12 mg/kg) and D10 (6 mg/kg) and with 20 mg/kg of 5-FU from D0 to D4 and 100 mg/kg of 5-FU at D9.
The tumours were measured twice a week, and the volume of the tumours was calculated with the formula: V (mm^3)=d^2×D/2.
FIG. 21 represents the tumour volume as a function of time. Group A (PBS control) is represented by (⋄), group B (mice inoculated with the ITAC-B1 antibody) is represented by (▪), group C (mice inoculated with 5-FU) is represented by (Δ), and group D (mice inoculated both with the ITAC-B1 antibody and with 5-FU) is represented by (x).

T1 sequence (O60462 21-931): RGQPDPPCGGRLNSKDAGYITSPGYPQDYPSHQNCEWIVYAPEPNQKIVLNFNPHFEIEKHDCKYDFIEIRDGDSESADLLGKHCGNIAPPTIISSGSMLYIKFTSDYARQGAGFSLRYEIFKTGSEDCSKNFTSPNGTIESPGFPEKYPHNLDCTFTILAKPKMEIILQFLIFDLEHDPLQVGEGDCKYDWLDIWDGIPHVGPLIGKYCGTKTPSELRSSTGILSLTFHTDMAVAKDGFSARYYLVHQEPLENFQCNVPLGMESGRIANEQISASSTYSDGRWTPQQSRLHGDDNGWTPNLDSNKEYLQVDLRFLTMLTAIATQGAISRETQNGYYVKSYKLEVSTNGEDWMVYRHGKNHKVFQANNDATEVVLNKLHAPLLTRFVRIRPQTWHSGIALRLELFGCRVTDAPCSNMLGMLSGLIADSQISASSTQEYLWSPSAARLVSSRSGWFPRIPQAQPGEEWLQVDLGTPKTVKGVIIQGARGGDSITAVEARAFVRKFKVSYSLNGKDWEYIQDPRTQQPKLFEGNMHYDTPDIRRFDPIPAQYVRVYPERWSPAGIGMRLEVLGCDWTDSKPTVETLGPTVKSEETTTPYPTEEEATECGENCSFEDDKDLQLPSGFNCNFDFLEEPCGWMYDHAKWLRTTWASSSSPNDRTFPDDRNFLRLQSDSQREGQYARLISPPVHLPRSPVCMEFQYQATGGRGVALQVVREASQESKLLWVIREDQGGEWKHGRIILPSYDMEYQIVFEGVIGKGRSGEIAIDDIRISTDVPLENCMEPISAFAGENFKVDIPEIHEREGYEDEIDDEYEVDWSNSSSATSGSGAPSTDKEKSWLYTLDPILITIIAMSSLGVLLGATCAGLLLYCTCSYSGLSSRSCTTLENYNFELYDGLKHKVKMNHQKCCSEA

B1: ITAC-B1: anti-human neuropilin-2 murine monoclonal antibody, VH SEQ ID No. 2, VL SEQ ID No. 4, produced by hybridoma CNCM 1-4054 (antibody, listed as Mus musculus, V domains shown)
VH: EVKLQESGAELVKPGASVKLSCTVSGFNIKDTYIHWVIQRPEQGLEWLGRIDPANGNTKYDPKFQGKATITADTSSNTAYLQLSSLTSEDTAVYYCARWAVVGDYWGQGTTLTVSS
VL: YCDHPLYKFLHVSAGDRVTITCKASQSVSDDVAWYQQKPGQSPKLLIYSASNRYTGVPDRFTGSGYGTDFTFTISTVQPEDLAVYFCQQDYSSPTFGSGTKLELK
labelling of cells expressing NRP-2 versus cells not expressing NRP-2 [1]: specifically recognize the neuropilin-2 present at the membrane surface
percentage of cells labelled with Annexin V-APC (Colo320siRNA-ctrl cells; cells pretreated 18 h with PFTα 27 μM): approximately 28%
percentage of cells labelled with Annexin V-APC (Colo320siRNA-ctrl cells; non-pretreated cells): 41%
expression of p53 in lines which express NRP-2 (p53 protein; HT29-NRP-2 and Colo320^siRNA-ctrl): partly restores the expression of p53
expression of p53 in lines which do not express NRP-2 (p53 protein; HT29-ctrl and Colo320^siRNA-NRP-2, with or without antibody): strongly expressed
tumour volume (HT29-NRP-2 tumour cells; group B: ITAC-B1 intraperitoneally D0 12 mg/kg, D3 6 mg/kg, D7 12 mg/kg, D10 6 mg/kg): reduction in tumour volume is observed starting from D14
tumour volume (HT29-NRP-2 tumour cells; group D: ITAC-B1 combined with 5-FU, same regimens): more marked

From patent publication US8722043B2, “Induction of p53 expression by neutralization of neuropilin-2 for the treatment of cancers” (Diaclone, priority 2008, dated 2014)
